Test results: PMC11362597, “Neutrophil-specific interactome of ARHGAP25 reveals novel partners and regulatory insights” (Scientific Reports, 2024)

T1: GST-fused recombinant ARHGAP25 (human, UniProt P42331 1-645)
T1 construct: also called GST-ARHGAP25; GST-tagged recombinant ARHGAP25
T1 sequence (looked up): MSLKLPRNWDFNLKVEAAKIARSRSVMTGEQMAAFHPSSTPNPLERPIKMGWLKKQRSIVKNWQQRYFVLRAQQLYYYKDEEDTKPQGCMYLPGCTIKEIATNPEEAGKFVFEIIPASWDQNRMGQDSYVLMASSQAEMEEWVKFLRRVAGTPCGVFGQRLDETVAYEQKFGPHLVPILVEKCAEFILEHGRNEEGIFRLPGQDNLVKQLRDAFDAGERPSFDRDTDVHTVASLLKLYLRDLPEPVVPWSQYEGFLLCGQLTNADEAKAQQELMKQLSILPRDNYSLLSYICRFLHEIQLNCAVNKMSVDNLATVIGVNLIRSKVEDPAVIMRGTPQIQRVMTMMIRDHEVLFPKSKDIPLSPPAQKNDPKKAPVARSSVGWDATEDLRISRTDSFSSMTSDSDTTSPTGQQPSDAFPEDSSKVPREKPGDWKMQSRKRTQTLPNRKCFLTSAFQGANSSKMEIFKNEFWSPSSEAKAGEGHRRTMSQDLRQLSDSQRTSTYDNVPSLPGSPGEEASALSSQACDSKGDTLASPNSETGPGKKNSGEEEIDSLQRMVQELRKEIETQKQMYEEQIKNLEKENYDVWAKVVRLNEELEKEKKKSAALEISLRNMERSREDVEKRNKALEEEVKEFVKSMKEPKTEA

B1: RHOG (natural protein)
chain: not shown
notes: RHOG, small GTPase of the Rac subfamily, endogenous in human neutrophilic granulocytes; In some pull-downs the lysate was loaded with GTPγS or GDPβS beforehand; source: endogenous, human neutrophilic granulocyte lysate
B2: ARF4 (natural protein, UniProt P18085 1-180, looked up)
chain: MGLTISSLFSRLFGKKQMRILMVGLDAAGKTTILYKLKLGEIVTTIPTIGFNVETVEYKNICFTVWDVGGQDRIRPLWKHYFQNTQGLIFVVDSNDRERIQEVADELQKMLLVDELRDAVLLLFANKQDLPNAMAISEMTDKLGLQSLRNRTWYVQATCATQGTGLYEGLDWLSNELSKR
notes: ARF4, small GTPase, endogenous in human neutrophilic granulocytes; In some pull-downs the lysate was loaded with GTPγS or GDPβS beforehand; source: endogenous, human neutrophilic granulocyte lysate
B3: RAB27A (natural protein, UniProt P51159 1-221, looked up)
chain: MSDGDYDYLIKFLALGDSGVGKTSVLYQYTDGKFNSKFITTVGIDFREKRVVYRASGPDGATGRGQRIHLQLWDTAGQERFRSLTTAFFRDAMGFLLLFDLTNEQSFLNVRNWISQLQMHAYCENPDIVLCGNKSDLEDQRVVKEEEAIALAEKYGIPYFETSAANGTNISQAIEMLLDLIMKRMERCVDKSWIPEGVVRSNGHASTDQLSEEKEKGACGC
notes: RAB27A, small GTPase, endogenous in human neutrophilic granulocytes; In some pull-downs the lysate was loaded with GTPγS or GDPβS beforehand; source: endogenous, human neutrophilic granulocyte lysate

What follows are binders tested against T1, GST-fused recombinant ARHGAP25 (assay: affinity purification with mass spectrometry; GST-ARHGAP25 on glutathione agarose beads incubated with neutrophil lysate loaded beforehand with GTPγS or GDPβS (15 mM EDTA, 15 min, RT; stopped with 60 mM MgCl2), 45 min, 4 °C; LFQ values of the two loadings compared). Conditions: one partner purified.

Binder | log2ΔFC of LFQ values, GTPγS-loaded against GDPβS-loaded lysate
B1 | 0.589
B2 | < 0.2
B3 | < 0.2
